Experimental data from patent US20250340623A1 (AC IMMUNE, published 2025).
Where a chain is given by its changes, count along the chain named.

B1: ACI-7088-4301E12-Ab2 (antibody, V domains shown)
VH: DVQLQESGPGLVKPSQSLSLTCSVTGYSITSGYYWNWIRQFPGNKLEWMGYISDDGSKNYNPSLKNRISITRDTSKNQLFMKLNSVTTEDTATYYCARGDSRLGQGTLVTVSA
VL: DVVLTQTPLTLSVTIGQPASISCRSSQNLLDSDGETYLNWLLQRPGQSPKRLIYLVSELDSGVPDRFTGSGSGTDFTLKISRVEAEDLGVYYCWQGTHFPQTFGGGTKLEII
notes: mouse hybridoma mAb; VH/VL only; also called 4301E12B9
B2: ACI-7079-2601B6-Ab1 (antibody, V domains shown)
VH: EIQLQQSGAELVRPGASVKLSCTTSGFNIKDDYIHWVKQRPEQGLEWIGWIDPENGDTDYASKFQGKATITADTSSNTAYLHLSSLTSEDAAVYFCTTRGFGYWGQGTLVTVS
VL: DIVMTQSHKFMSTSVGDRVSITCKASQDVGNVVAWYQQKPGQSPKLLIYWASSRHTGVPDRFTGSGSGTEFTLTISNVQSEDLADYFCQQYSSYPLTFGAGTKLELK
notes: mouse hybridoma mAb; VH/VL only; also called 2601B6D2; ACI-7079-26016NAbM
B3: ACI-7089-4415G5-Ab1 (antibody, V domains shown)
VH: QVQLQQSGAELARPGASVKVSCKASGYTFTSSGISWLKHRTGQGLEWIGDIYPRSGNTYYNEKFKDKATLTADKSSSTAYMELRSLTSEDSAVYFCASGNYWGQGTTLTVSA
VL: DIVITQDDLSNPVTSGESVSISCRSSKSLLYKDGKTYLNWFLQRPGQSPQLLIYLMSTRASGVSDRFSGSGSGTDFTLEISRVKAEDVGVYYCQQLLEYPLTFGAGTKLELK
notes: mouse hybridoma mAb; VH/VL only; also called 4415G5A11
B4: ACI-8033-6403E11-Ab2 (antibody, V domains shown)
VH: DVQLQESGPGLVKPSQSLSLTCSVTGYSITSAYYWNWIRQFPGNKLEWMGYISYDGSNNYIPSLKNRISISRDTSKNQFFLKLNSVTTEDTATYYCIRGDVNWGQGTTLTVSS
VL: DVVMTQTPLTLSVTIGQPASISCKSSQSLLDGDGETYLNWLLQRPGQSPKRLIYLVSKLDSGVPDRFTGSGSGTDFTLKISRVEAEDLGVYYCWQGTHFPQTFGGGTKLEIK
notes: mouse hybridoma mAb; VH/VL only; also called 6403E11B4
B5: ACI-7089-4418C5-Ab1 (antibody, V domains shown)
VH: B4 VH with V2G, A32G, S53N, I61N, S71T, L83F, S85F, I97V, N102Y
VL: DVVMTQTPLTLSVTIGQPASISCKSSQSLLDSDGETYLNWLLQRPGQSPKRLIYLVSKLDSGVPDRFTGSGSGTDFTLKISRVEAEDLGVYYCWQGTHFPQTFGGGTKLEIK
notes: mouse hybridoma mAb; VH/VL only; also called 4418C5G1
B6: ACI-8033-6402E10-Ab1 (antibody, V domains shown)
VH: B4 VH with S15V, A32G, Y54S, I61N, N84D, I97V, G99A, V101N, N102Y
VL: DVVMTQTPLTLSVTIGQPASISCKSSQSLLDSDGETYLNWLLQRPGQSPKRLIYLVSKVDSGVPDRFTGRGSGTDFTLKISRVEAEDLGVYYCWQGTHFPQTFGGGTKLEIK
notes: mouse hybridoma mAb; VH/VL only; also called 6402E10B3
B7: ACI-7079-3103D9-Ab1 (antibody, V domains shown)
VH: QVSLKESGPGILQPSQTLSLTCSFSGFSLSTFGMGVGWIRQPSGKGLDWLTHIWWDDDKYYNPGLKSRLTISKDTSKNQVFLEIANVDTADTATYYCARIGDYYGTRGYFDVWGTGTTVTVSS
VL: DIVMTQSPSSLTMSLGQTVTMSCKSSQSLLNSSNQKNHLAWYQQRPGQSPKLLVYFASTRESGVPERFIGGGSGTDFTLTISNVQSEDLTDYFCQQHYSTPYTFGGGTKLEIK
notes: mouse hybridoma mAb; VH/VL only; also called 3103D9C9
B8: ACI-7087-4119E10-Ab2 (antibody, V domains shown)
VH: QVQLQQSGAELVRPGASVTLSCKASGYTFSDYEMNWVKQTPVHGLEWIGAIDPETGGTAYNQKFKGKAILTSDKSSSTAYMELRSLTSEDSAVYYCTRFLLIDFDYWGQGTTLTVSS
VL: DVLMTQTPLSLPVSLGDQASISCRSSQSIVHSNGNTYLEWYLKKAGQSPKVLIYKVSNRFSGVPDRFSGSGSGTDFTLKISRVEAEDLGVYYCFQGSHVPYTFGGGTELEIK
notes: mouse hybridoma mAb; VH/VL only; also called 4119E10D12
B9: ACI-7079-3103G12-Ab2 (antibody, V domains shown)
VH: DVQLQESGPGMVKPSQSLSLTCTVTGYSITSGYDWHWIRHFPGNKLEWMGYITYSGSTNYNPSLKSRISITHDTSKNHFFLKLTSVTTEDTATYYCARDTVDAWFAYWGQGTLVTVSA
VL: B8 VL with T7A, N35D, K43Q, A45P, V51L, Y101P, E108K
notes: mouse hybridoma mAb; VH/VL only; also called 3103G12D2B10
B10: ACI-8033-21C8-Ab1 (antibody, V domains shown)
VH: QVQLQQPGAELVKPGASVKMSCKASGYTFTSYWITWVRQRPGQGLDWIGDIYPGGGVTNYNEKFKTKATLTVDTSSSTAYMHLSSLTSEDSAVYFCATAQTTFAYWGQGTLVTVSA
VL: B8 VL with S28N, S32N, K43Q, A45P, V51L, Y101R, E108K
notes: mouse hybridoma mAb; VH/VL only; also called 917.21C8E4C8
B11: ACI-7079-3101E3-Ab1 (antibody, V domains shown)
VH: QVQLKESGPGLVAPSQSLSITCTVSGFSLTRYIINWVRQPPGKGLEWLGVIWTGGGTDYNSALKSRLSISKDNSKSQVFLKMNSLQTDDTARYYCAREYGYDGAWFAYWGQGTLVTVSA
VL: B8 VL with S28T, K43Q, A45P, V51L, E108K
notes: mouse hybridoma mAb; VH/VL only; also called 3101E3C9
B12: ACI-7088-4301D5-Ab2 (antibody, V domains shown)
VH: QVQLQQSGPELVRPGASVKISCKASGYRFTSYYIHWVKQRPGQGLEWIGWIYPGSDNTKHNDKFKGKATLTADTSSSTAYMQLSSLTSEDSAVYFCARDYDVGFGYWGQGTLVTVSS
VL: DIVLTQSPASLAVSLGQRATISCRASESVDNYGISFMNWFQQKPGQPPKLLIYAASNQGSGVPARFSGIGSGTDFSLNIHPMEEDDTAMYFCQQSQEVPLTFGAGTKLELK
notes: mouse hybridoma mAb; VH/VL only; also called 4301D5B10
B13: ACI-7087-4125E6-Ab1 (antibody, V domains shown)
VH: QVQLQQPGTELVKPGASVRLSCKASGYAFTSYWMHWVKQRPGQGLEWIGNINPSNGGTNYNEKFKNKATLTVDKSSSTAYMQLSGLTSEDSAVYYCATGLHYWGQGTTLTVSS
VL: DIQMTQSPSSLSASLGERVTLTCRASQDIGNYLNWLQQEPDGTIKRLIYATSSLDSGVPKRFSGSRSGSDYSLTISSLESEDFVDYYCLQFASSPLTFGPGTKLELK
notes: mouse hybridoma mAb; VH/VL only; also called 4125E6D5
B14: ACI-8033-22E5-Ab1 (antibody, V domains shown)
VH: EVQLVESGGDLVKPGGSLKLSCAASGFTFSSYGMSWVRQTPDKRLEWVATISNGGSYTYYPDSVKGRFTISRDNAKNTLYLQMSSLKSEDTAMYYCARQLRRDGWYFDVWGTGTTVTVSS
VL: EIVLTQSPALMAASPGEKVTITCSVSSSISSSKLHWYQQKSETSPKLWIYGTSNLASGVPVRFSGSGSGTSYSLTISSMEAEDAATYYCQQWSSYPLTFGAGTKLELK
notes: mouse hybridoma mAb; VH/VL only; also called 917.22E5C5F7
B15: ACI-7079-3108C10-Ab2 (antibody, V domains shown)
VH: ELQLVESGGGLVRPGGSLKLSCATSGFTFRNYAMSWVRQTPAKRLEWVATISDGGTYTFYSDNVKGRFTISRDNVKNTLYLQMSHLKSEDTAMYYCSRAGSGHWGQGTTLTVSS
VL: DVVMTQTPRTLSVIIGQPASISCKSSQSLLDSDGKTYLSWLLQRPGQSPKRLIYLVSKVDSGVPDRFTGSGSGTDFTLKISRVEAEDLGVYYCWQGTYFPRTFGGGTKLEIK
notes: mouse hybridoma mAb; VH/VL only; also called 3108C10G6

molecular target: monomeric alpha-synuclein (UniProt P37840 1-140); assay: SPR, captured mAb
Description: (§1) Non-covalent immobilization of alpha-synuclein antibodies was performed using a target immobilization method of 2000 response units (RU). Antibodies were diluted in 10 mM sodium acetate pH 5.5 (GE Healthcare, BR-1003-52) to a final concentration of 5 μg/mL.
(§2) Binding affinity of alpha-synuclein antibodies to monomeric or fibrillar alpha-synuclein species was performed using a single-cycle kinetics method. The instrument was primed with 1×HBS-P+ buffer (10× stock from GE Healthcare, BR-1003-52 diluted in Milli-Q water). Injections of monomeric alpha-synuclein (aSyn) (Boston Biochem, SP-485), increasing in concentration from 0.62-50 nM prepared from serial 2-fold dilutions, were performed with contact times of 300 sec/injection at a flow rate of 30 μL/min. A dissociation phase of 900 sec followed the final 50 nM injection. Regeneration of the sensor to the goat anti-mouse antibody layer was achieved using 3 regenerations of 10 mM Glycine pH 1.7. […] Regeneration of the sensor to the goat anti-mouse antibody layer was achieved using 3 regenerations of 10 mM Glycine pH 1.7. Results obtained from single-cycle kinetics were evaluated by Biacore T200 evaluation software with 1:1 binding homogenous Langmuir model (with a global Rmax) with Cycle 5 as a blank subtraction. The following kinetic parameters were obtained: on-rate (ka), off-rate (kd), affinity constant (KD, ratio of kd by ka), maximum response (Rmax), and goodness of fit (Chi2).
(§3) Non-covalent capture of the alpha-synuclein antibodies was performed in three separate runs.

Which Kd does the source give for B1 here?
The Kd was 6 nM.

And the koff?
Its koff is 0.000118 s⁻¹.

What about the kon of the same binder?
The kon was 19800 M⁻¹ s⁻¹.

B2 was tested. Which Kd did it give?
Its Kd is 82.1 nM.

What about the koff of the same binder?
The koff was 0.0238 s⁻¹.

What about the kon of the same binder?
Its kon is 290000 M⁻¹ s⁻¹.

How did the Kd turn out when B3 was run?
The Kd was 2.4 nM.

And the koff?
The koff was 0.000141 s⁻¹.

What about the kon of the same binder?
Its kon is 60000 M⁻¹ s⁻¹.

B4 was tested. Which Kd did it give?
The Kd was 3.9 nM.

What about the koff of the same binder?
The koff was 0.000293 s⁻¹.

And the kon?
Its kon is 75200 M⁻¹ s⁻¹.

How did the Kd turn out when B5 was run?
Its Kd is 3.1 nM.

What about the koff of the same binder?
Its koff is 0.000141 s⁻¹.

And the kon?
Its kon is 45000 M⁻¹ s⁻¹.

B6 was tested. Which Kd did it give?
The Kd was 28.3 nM.

And the koff?
The koff was 0.00058 s⁻¹.

And the kon?
The kon was 20500 M⁻¹ s⁻¹.

With B7 as the binder, how does the Kd read?
The Kd was 0.73 nM.

What about the koff of the same binder?
Its koff is 0.000437 s⁻¹.

And the kon?
Its kon is 598000 M⁻¹ s⁻¹.

With B8 as the binder, how does the Kd read?
The Kd was 1040 nM.

And the koff?
Its koff is 0.0188 s⁻¹.

And the kon?
Its kon is 18000 M⁻¹ s⁻¹.

With B9 as the binder, how does the Kd read?
The Kd was 2.4 nM.

What about the koff of the same binder?
The koff was 0.0014 s⁻¹.

What about the kon of the same binder?
Its kon is 580000 M⁻¹ s⁻¹.

B10 was tested. Which Kd did it give?
Its Kd is 1.6 nM.

What about the koff of the same binder?
Its koff is 0.000482 s⁻¹.

And the kon?
Its kon is 301000 M⁻¹ s⁻¹.

With B11 as the binder, how does the Kd read?
The Kd was 300 nM.

What about the koff of the same binder?
The koff was 0.0569 s⁻¹.

And the kon?
Its kon is 190000 M⁻¹ s⁻¹.

What does the source list for B12?
Kd: 620 nM; koff: 0.0353 s⁻¹; kon: 56900 M⁻¹ s⁻¹

Which results are given for B13?
Kd: 442 nM; koff: 0.0261 s⁻¹; kon: 59100 M⁻¹ s⁻¹

molecular target: alpha-synuclein fibrils (UniProt P37840 1-140); assay: SPR, captured mAb
Description: as §1, §2, §3

Which Kd does the source give for B14 here?
The Kd was 1.8 nM.

And the koff?
Its koff is 3.27e-05 s⁻¹.

What about the kon of the same binder?
The kon was 18000 M⁻¹ s⁻¹.

How did the Kd turn out when B1 was run?
The Kd was 39 nM.

And the koff?
Its koff is 0.000166 s⁻¹.

And the kon?
The kon was 4250 M⁻¹ s⁻¹.

B2 was tested. Which Kd did it give?
Its Kd is 22 nM.

What about the koff of the same binder?
The koff was 0.000382 s⁻¹.

And the kon?
Its kon is 17400 M⁻¹ s⁻¹.

Which Kd does the source give for B15 here?
The Kd was 6.77 nM.

What about the koff of the same binder?
The koff was 6.66e-05 s⁻¹.

And the kon?
The kon was 9840 M⁻¹ s⁻¹.

With B3 as the binder, how does the Kd read?
The Kd was 1.3 nM.

What about the koff of the same binder?
The koff was 0.00031 s⁻¹.

And the kon?
The kon was 242000 M⁻¹ s⁻¹.

B4 was tested. Which Kd did it give?
The Kd was 44.6 nM.

And the koff?
Its koff is 0.000273 s⁻¹.

What about the kon of the same binder?
Its kon is 6110 M⁻¹ s⁻¹.

With B5 as the binder, how does the Kd read?
The Kd was 0.05 nM.

What about the koff of the same binder?
Its koff is 9.4e-06 s⁻¹.

What about the kon of the same binder?
Its kon is 207000 M⁻¹ s⁻¹.

With B6 as the binder, how does the Kd read?
The Kd was 37.4 nM.

And the koff?
The koff was 0.000152 s⁻¹.

What about the kon of the same binder?
Its kon is 4060 M⁻¹ s⁻¹.

Which Kd does the source give for B7 here?
The Kd was 9.2 nM.

What about the koff of the same binder?
The koff was 0.000413 s⁻¹.

What about the kon of the same binder?
The kon was 44800 M⁻¹ s⁻¹.

What does the source list for B8?
Kd: 16.2 nM; koff: 0.00453 s⁻¹; kon: 280000 M⁻¹ s⁻¹

How did the Kd turn out when B9 was run?
The Kd was 22.5 nM.

And the koff?
Its koff is 0.000563 s⁻¹.

And the kon?
Its kon is 25000 M⁻¹ s⁻¹.

For B10, which Kd is on record?
Its Kd is 17.7 nM.

And the koff?
Its koff is 0.000156 s⁻¹.

What about the kon of the same binder?
The kon was 8810 M⁻¹ s⁻¹.

With B11 as the binder, how does the Kd read?
Its Kd is 13.7 nM.

And the koff?
Its koff is 0.000129 s⁻¹.

And the kon?
Its kon is 9380 M⁻¹ s⁻¹.

Which Kd does the source give for B12 here?
The Kd was 35.8 nM.

What about the koff of the same binder?
Its koff is 0.000385 s⁻¹.

And the kon?
Its kon is 10800 M⁻¹ s⁻¹.

With B13 as the binder, how does the Kd read?
Its Kd is 50.7 nM.

And the koff?
Its koff is 0.000567 s⁻¹.

What about the kon of the same binder?
Its kon is 11200 M⁻¹ s⁻¹.
